The values below come from PMC7918695, “TFF1 Induces Aggregation and Reduces Motility of Helicobacter pylori” (International Journal of Molecular Sciences, 2021).

The data set concerns the molecule itself. In words: non-reducing SDS-PAGE with Western blot; purified hrTFF1 loaded without reducing agents to preserve the disulfide bonds; probed with polyclonal anti-TFF1 antibody.

B1: human recombinant protein TFF1 (trefoil factor 1) (natural protein, UniProt P04155 25-84, looked up)
chain: EAQTETCTVAPRERQNCGFPGVTPSQCANKGCCFDDTVRGVPWCFYPNTIDVPPEEECEF
notes: Trefoil factor 1 (TFF1), human, recombinant from the hrTFF1-pIVEX vector; It is probably the mature secreted TFF1 without its signal peptide (surmised); The homodimer is held by disulfide bonds, since it is seen only under non-reducing conditions; also called hrTFF1; hTFF1; source: E. coli BLR (DE3) pLysS, purified (HisTrap HP, Factor Xa digestion, second HisTrap pass)
Take B1: the “stoichiometry N” value came out at 2.
